From patent publication US20220323583A1, “Pharmaceutical Formulations of Bi-Specific Diabodies and Use of the Same” (MacroGenics, Inc., priority 2019, published 2022)

Tests used:
Human CD3ε/δ (human) = Human CD3ε/δ (human) (UniProt P07766); experiment: kinetic binding measurement, method not stated
[1] = target: Cynomolgus CD3ε/δ (cynomolgus monkey) (UniProt Q95LI5); experiment: kinetic binding measurement, method not stated

Human CD3ε/δ (human), sequence (P07766 23-126, stated change not applied, chain 1 of 2): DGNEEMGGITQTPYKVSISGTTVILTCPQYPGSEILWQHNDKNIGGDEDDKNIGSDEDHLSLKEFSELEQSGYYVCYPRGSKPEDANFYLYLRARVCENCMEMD
Human CD3ε/δ (human), sequence (P04234 22-105, stated change not applied, chain 2 of 2, further chain): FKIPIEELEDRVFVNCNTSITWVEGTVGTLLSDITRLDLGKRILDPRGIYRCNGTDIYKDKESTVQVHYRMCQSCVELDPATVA

B1: DART-A, sequence-optimized CD123×CD3 bispecific diabody (bispecific antibody)
chain 1: QAVVTQEPSLTVSPGGTVTLTCRSSTGAVTTSNYANWVQQKPGQAPRGLIGGTNKRAPWTPARFSGSLLGGKAALTITGAQAEDEADYYCALWYSNLWVFGGGTKLTVLGGGGSGGGGEVQLVQSGAELKKPGASVKVSCKASGYTFTDYYMKWVRQAPGQGLEWIGDIIPSNGATFYNQKFKGRVTITVDKSTSTAYMELSSLRSEDTAVYYCARSHLLRASWFAYWGQGTLVTVSSGGCGGGEVAALEKEVAALEKEVAALEKEVAALEK
chain 2: DFVMTQSPDSLAVSLGERVTMSCKSSQSLLNSGNQKNYLTWYQQKPGQPPKLLIYWASTRESGVPDRFSGSGSGTDFTLTISSLQAEDVAVYYCQNDYSYPYTFGQGTKLEIKGGGSGGGGEVQLVESGGGLVQPGGSLRLSCAASGFTFSTYAMNWVRQAPGKGLEWVGRIRSKYNNYATYYADSVKDRFTISRDDSKNSLYLQMNSLKTEDTAVYYCVRHGNFGNSYVSWFAYWGQGTLVTVSSGGCGGGKVAALKEKVAALKEKVAALKEKVAALKE
Kd (Human CD3ε/δ (human)): 9 nM | koff (Human CD3ε/δ (human)): 0.005 s⁻¹ | kon (Human CD3ε/δ (human)): 570000 M⁻¹ s⁻¹ | Kd [1]: 9.2 nM | koff [1]: 0.005 s⁻¹ | kon [1]: 550000 M⁻¹ s⁻¹
